According to the supplement of paper PMC9170038:

Test system: MS2 coat protein
Assay: apparent KD of MS2 coat protein; higher = weaker reporter binding
Settings: Eterna round: R107
Summary of the method: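 Designed RNA switches were made by on-chip transcription from Illumina sequencing clusters and then titrated with SNAP-549-labelled MS2 coat protein. Twofold steps ran from 0.7 or 1.5 nM to 3 µM, each lasting 0.8–1.5 h early and 10–20 min late, in 100 mM Tris-HCl pH 7.5, 80 mM KCl, 4 mM MgCl2, without or with constant ligand. Apparent KD is the per-design median of normalised cluster binding-curve fits.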

[1] = input ligand: theophylline 20 uM
[2] = input ligand: theophylline 2 mM
[3] = input ligand: tryptophan 2.4 mM

| Sequence | apparent KD of MS2 coat protein (input ligand: arginine 13.2 mM) | apparent KD of MS2 coat protein [1] | apparent KD of MS2 coat protein [2] | apparent KD of MS2 coat protein [3] | apparent KD of MS2 coat protein (input ligand: none) |
| --- | --- | --- | --- | --- | --- |
| CGCAACAUGAGGAUCACCCAUGUAAUGACGCGAGGACCGGUACGGCCGCCACUCGCCUGGCAGUGAGCGCAUGCGGCCUGGGUAU [Exclusion Tryp A GF8] | 10.6 nM | 16.5 nM | 14.3 nM | – | – |
| CGCCACAUGAGGAUCACCCAUGUCUUGGCGCGAGGACCGGUACGGCCGCCACUCGCGUUUCAGUGAGCGCAUGCGUCCUUGGUAU [Exclusion Tryp A GF10] | 16.8 nM | 27 nM | 20.3 nM | – | – |
| CGCGGGCCACAUGAGGAUCACCCAUGUGAAGGAGCGGCGAAUAAGCCAGGUAGGUCGCGCAUGAAUAAAUCAUGUAGGUGGCGAA [XArg-A 10 V1&2] | 16.4 nM | 22.8 nM | 21.6 nM | 20.2 nM | – |
| CGGUCGGUCGGCCGGUGAUUAUGGGAUGAAGGAGCGUGGGAAGCUACAGGUAGGUCGCAUCCGAAACACGAGGAUCACCCGUGUU [SSArg A #25Alt-Ms2 Mod] | 26.5 nM | 38.3 nM | 37.4 nM | 28.4 nM | 24.3 nM |
| CGGUCGGUCGGUCGGUGAUUAUGGGAUGAAGGAGCGUGGGAAGCUACAGGUAGGUCGCAUCCGAAACAUGAGGAUCACCCAUGUU [#21 Same State - Arginine A] | 24.6 nM | 26.8 nM | 21.3 nM | 18.5 nM | 21 nM |
| CGGUUUGUGAUGGAUACCAGCAGAGUGAAUGUUUAUCCUGACAUGAGGAUCACCCAUGUGUGCCCUUGGCAGCUGUUGUGGGCUG [8.Z] | 54.4 nM | 100 nM | – | 63.7 nM | – |
| CGUAUUACGAAAGUAGUACGUAGUGUUCGACGAGGACCGGUACGGCCGCCACUCGGACAUGAGGAUCACCCAUGUAGCGAAAGCU [Tryptophan A 24] | 46.1 nM | 301 nM | 247 nM | 28.3 nM | 255 nM |
| CGUGGUUGAGAUGGGCCUCUGAUAAGUCUGCGAGGACCGGUACGGCCGCCACUCGAGGACAUGAGGAUCACCCAUGUACUUCGCG [Vequar] | 41.1 nM | 139 nM | 50.5 nM | 19.2 nM | 30.8 nM |
| CUACAUGUAGUUAAACCGGUCAACAAUAAUCGAGGACCGGUACGGCCGCCACUCGAUGUGUUAUACACAUGAGGAUCACCCAUGU [Tryptophan A 15] | 23.3 nM | 27.2 nM | 27.8 nM | – | – |
| CUACAUUUGUAGAAACCGGUCAACAAUAAUCGAGGACCGGUACGGCCGCCACUCGAUGUAAAAUAAACAUGAGGAUCACCCAUGU [Tryptophan A 12] | 13.5 nM | 20.6 nM | 20 nM | – | – |
| CUAUAAGUACCGGUCCUCAGAUCCUCAUGACGAGGACCGGUACGGCCGCCACUCGAAACAUGAGGAUCACCCAUGUAAUAAUAAU [Brourdmod06] | 15 nM | 38.5 nM | 24.5 nM | – | – |
| CUAUAAGUACCGGUCCUCAGAUCCUCAUGACGAGGACCGGUACGGCCGCCACUCGAAACAUGAGGAUCACCCAUGUAAUAAUAUU [Brourdmod10] | 19 nM | 31.5 nM | 24.2 nM | – | – |
| CUAUGCAGGUCGGCCGCCACUACACACAUGAGGAUCACCCAUGUAGUUACUGGGUGAAGUGGCAGUAGGACCGGGACCUGCACAU [Brourdmod15] | 190 nM | 578 nM | 659 nM | 229 nM | 480 nM |
| CUAUGGAUAAGAAGGAGCGUCGAAAAUGGGUAAACAUGAGGAUCACCCAUGUAAAGGGAACGACAGGUAGGUCGCUUAUUUAUAG [AstromonsSSArgB#7] | 107 nM | 190 nM | 213 nM | 192 nM | 179 nM |
| CUCAUCCACGCGGCCGCCACUAUAUUGUGGUGCGUAUGUGUCGUAAUACAUGAGGAUCACCCAUGUAGGACCGGGCGUGGAUGAG [#10 Exclusion Tryptophan B] | 10.9 nM | 14.3 nM | 11.6 nM | – | – |
| CUCAUCCACGCGGCCGCCACUAUAUUGUGGUGUGAAUGUGACGUAUUACAAGAGGAUCACCCUUGUAGGACCGGGCGUGGAUGAG [Tryp B Ex Mod1] | 28.5 nM | 28.4 nM | 34.2 nM | 147 nM | 20.3 nM |
| CUCCCGUGAGCGGCCGCCACUGGAGGCCUCGCGCGACAUGAGGAUCACCCAUGUUGGCCCGGCCUCAGGACCGGGUUCGCGUGAG [Same State - Tryptophan B Attempt #6 (HarryS)] | 7.47 nM | 17.4 nM | 12.7 nM | 8.4 nM | 9.18 nM |
| CUCCGAGGCUAUACUAUCCGCCUCUGUGAUACCAGAAUACCUAUAUUCCCUUGGCAGCAUCACAUGAGGAUCACCCAUGUGCCAU [SSTheo A #13] | 14.5 nM | 16.8 nM | – | 13.9 nM | – |

| Sequence | apparent KD of MS2 coat protein (input ligand: arginine 13.2 mM) | apparent KD of MS2 coat protein [1] | apparent KD of MS2 coat protein [2] | apparent KD of MS2 coat protein [3] | apparent KD of MS2 coat protein (input ligand: none) |
| --- | --- | --- | --- | --- | --- |
| CUCGAGGCCGGUGAUACCAGACACGAAACUAUACAUGAGGAUCACCCAUGUCAAACAACGGUCCCUUGGCAGCAUGGGUGUAUCC [Enzabemage] | 26.9 nM | 131 nM | – | 33.3 nM | – |
| CUCGGUUGAUCCUAGCUGCCGAGAGGUGAUACCAGCAUCGAAAGAUGCCCUUGGCAGCACCAACAUGAGGAUCACCCAUGUAAUA [(MT)''-(M)'-(T')-(Theo)-(Ms2)_Design1/22_5] | 30.2 nM | 156 nM | – | 30.1 nM | – |
| CUGGCAGGAUUCUCAGCUGUCAGGGCUGAUACCAGCCACGAAAGUGGCCCUUGGCAGCAGCAAACAUGAGGAUCACCCAUGUAAU [(T)''-(M)'-(T)'-(Theo)-(Ms2)_Design1] | 279 nM | 364 nM | 46.3 nM | 208 nM | 470 nM |
| CUUGAGACAUGAGGAUCACCCAUGUCCGAAGGAGCGUGCGAAAGCACAGGUAGGUCGCGGACGUGAGGAUCUCCCAUGUGAGCGA [#25 Exclusion - Arginine A] | 14.3 nM | 28.2 nM | 25.7 nM | 17.8 nM | 35.9 nM |
| CUUGUUUAUGGAAGGAGCGCGAUUACAUAACAUGAGGAUCACCCAUGUAAGAAAUUAUUCAUGCAGGUAGGUCGCCAUGGGUGGG [Same State Arginine B GF7] | 111 nM | 105 nM | 258 nM | 120 nM | 195 nM |
| GAACAACAUGAGGAUCACCCAUGUCAGGAUACCAGUCGAAAGUCAGACCCUUGGCAGCCUAUCACUCAGCAAAUAGAUAGUACAA [theeternabot_sameState_MS2_Theo_A_12] | 14.7 nM | 20.4 nM | – | 16.2 nM | – |
| GAAUAAGAAUCGGCCGCCACUCACAUGAGGAUCACCCAUGUACAUGAGGAACAUGAAAAUCACCCGAGGACCGGGAUAUAUGUUC [Excluion - Tryptophan B #1] | 31.1 nM | 67.4 nM | 71.3 nM | – | – |
| GACAUGAGGAUCACCCAUGUACCGCGAGAAGGAGCGCGGAUAAACGCAGGUAGGUCGCUCGUGGGCUCACAUUCAAUUGUAAGCU [Digece] | 17.5 nM | 49.8 nM | 58.3 nM | 31.6 nM | 39.2 nM |
| GACCUUAUCUGAAGGAGCGAGGUAAAUAGGGAUGAGCAUACAUGAGGAUCACCCAUGUGGCCUCAGGUAGGUCGCAGAUGAGAUU [Exclusion Arginine B GF27] | 77.5 nM | 155 nM | 149 nM | 105 nM | 113 nM |
| GACCUUAUCUGAAGGAGCGAGGUAAAUAGGGUUGAGCAUACAUGAGGAUCACCCAUGUGGCCUCAGGUAGGUCGCAGAUAAGACA [Exclusion Arginine B GF29] | 149 nM | 308 nM | 63.4 nM | 137 nM | 352 nM |
| GACUAUAUGAUAUGUCAGAAAUCCUCGAAACGAGGACCGGUACGGCCGCCACUCGAGUGAUAAACAUGAGGAUCACCCAUGUAAA [Tryp A Ex t2] | 21 nM | 28 nM | 27.7 nM | – | – |
| GAGCUGAUGUAGAGCGAAUAUACGAGAGAUACCAGUACAGAAAUGUACCCUUGGCAGCUCAACUUUACAUGAGGAUCACCCAUGU [Ex Theophylline A 22] | 14.4 nM | 15.2 nM | – | 14.3 nM | – |
| GAGCUGAUGUAGAGCUUAUAUAAGAGAGAUACCAGUACAGAAAUGUACCCUUGGCAGCUCAACUUUACAUGAGGAUCACCCAUGU [Ex Theophylline A 20] | 12.3 nM | 16 nM | 23.6 nM | 18.1 nM | 12.6 nM |
| GAGGCACGGUCGGCCGCCACUACAGCAGUGGUCCGCCAAGCGAGGUACAUGAGGAUCACCCAUGUUAGGACCGGGACCUGUUUUU [theeternabot_exclusion_MS2_Trp_B_27] | 20.2 nM | 24.6 nM | 25.5 nM | – | – |
| GAUGAACUAUUUGAUACCAGACUACAUGAGGAUCACCCAUGUGUGUUAAUUUUUCAGUCAGUCCCUUGGCAGCAAAUAGUUUAUC [XTheo B #2] | 42.2 nM | 70.7 nM | – | 32.1 nM | – |
| GAUGAUAUUGCAGAUACCAGACACAUGAGGAUCACCCAUGUCGCUGAGUUGCUGGAUCGUGUCCCUUGGCAGCUGCGAUAUCAUC [Belgium] | 18.3 nM | 38.5 nM | – | 19.7 nM | – |
| GAUGAUAUUGCAGAUACCAGACACAUGAGGAUCACCCAUGUCUCUGUGAUGUAGGAUUGUGUCCCUUGGCAGCUGCGAUAUCAUC [Chile] | 88 nM | 258 nM | – | 175 nM | – |
